System: Escherichia coli TOP10
Assay: shrunken log2 fold change of peptide-encoding DNA abundance (4.5 h post-induction vs induction); higher = less antimicrobial activity (less host growth inhibition)
Conditions: time post-induction: 4.5 h; library: site-saturation at positions 5, 18, 19, 20
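Further: peptides expressed intracellularly from a pBAD plasmid library in pooled LB shake-flask culture, induced with 0.3% L-arabinose, DNA abundance read by NGS, three biological replicates, DESeq2 with apeglm shrinkage.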

Row | Sequence | shrunken log2 fold change
1 | RRIRFRPPRLPRPRPRPMWCPRP | 0.0155
2 | RRIRWRPPRLPRPRPRPVIWPRP | 0.147
3 | RRIRMRPPRLPRPRPRPWESPRP | 0.109
4 | RRIRYRPPRLPRPRPRPILNPRP | -0.768
5 | RRIRRRPPRLPRPRPRPAGRPRP | 0.41
6 | RRIRQRPPRLPRPRPRPPCNPRP | -0.115
7 | RRIRGRPPRLPRPRPRPDPNPRP | 0.522
8 | RRIRFRPPRLPRPRPRPGILPRP | -0.187
9 | RRIRWRPPRLPRPRPRPAKCPRP | -0.0704
10 | RRIRARPPRLPRPRPRPNICPRP | -0.0618
11 | RRIRTRPPRLPRPRPRPINTPRP | -0.687
12 | RRIRVRPPRLPRPRPRPQELPRP | -0.0343
13 | RRIRDRPPRLPRPRPRPHVDPRP | 0.07
14 | RRIRERPPRLPRPRPRPKCDPRP | 0.175
15 | RRIRYRPPRLPRPRPRPTRHPRP | -0.00457
16 | RRIRGRPPRLPRPRPRPHPYPRP | 0.0786
17 | RRIRNRPPRLPRPRPRPVLIPRP | -0.27
18 | RRIRERPPRLPRPRPRPKNSPRP | -0.52
19 | RRIRTRPPRLPRPRPRPHDYPRP | -0.196
20 | RRIRPRPPRLPRPRPRPIKNPRP | -0.219
21 | RRIRHRPPRLPRPRPRPAGKPRP | 0.0288
22 | RRIRWRPPRLPRPRPRPDKQPRP | 0.0432
23 | RRIRQRPPRLPRPRPRPTTIPRP | -0.116
24 | RRIRIRPPRLPRPRPRPTHVPRP | -0.0979
25 | RRIRRRPPRLPRPRPRPCAAPRP | 0.743

Row | Sequence | shrunken log2 fold change
26 | RRIRIRPPRLPRPRPRPSKFPRP | -0.245
27 | RRIRFRPPRLPRPRPRPSVGPRP | -0.453
28 | RRIRWRPPRLPRPRPRPTHEPRP | 0.219
29 | RRIRPRPPRLPRPRPRPEGKPRP | -0.124
30 | RRIRTRPPRLPRPRPRPDTKPRP | -0.212
31 | RRIRYRPPRLPRPRPRPQNAPRP | -0.369
32 | RRIRQRPPRLPRPRPRPEPGPRP | 0.485
33 | RRIRLRPPRLPRPRPRPQTQPRP | 0.0159
34 | RRIRGRPPRLPRPRPRPGSTPRP | 0.75
35 | RRIRFRPPRLPRPRPRPTDYPRP | -0.578
36 | RRIRDRPPRLPRPRPRPELEPRP | 0.05
37 | RRIRVRPPRLPRPRPRPETMPRP | 0.0389
38 | RRIRNRPPRLPRPRPRPQPCPRP | 0.0582
39 | RRIRCRPPRLPRPRPRPDHSPRP | -0.184
40 | RRIRGRPPRLPRPRPRPYTIPRP | 0.187
41 | RRIRNRPPRLPRPRPRPVNQPRP | 0.214
42 | RRIRERPPRLPRPRPRPPPYPRP | -0.231
43 | RRIRCRPPRLPRPRPRPQGPPRP | 0.353
44 | RRIRIRPPRLPRPRPRPVTLPRP | -0.093
45 | RRIRIRPPRLPRPRPRPCYDPRP | -0.014
46 | RRIRQRPPRLPRPRPRPCGEPRP | -0.0396
47 | RRIRNRPPRLPRPRPRPRTLPRP | -0.0666
48 | RRIRERPPRLPRPRPRPRMCPRP | -0.0502
49 | RRIRIRPPRLPRPRPRPTQRPRP | 0.187
50 | RRIRIRPPRLPRPRPRPGSNPRP | -0.515

Row | Sequence | shrunken log2 fold change
51 | RRIRKRPPRLPRPRPRPYVHPRP | -0.431
52 | RRIRCRPPRLPRPRPRPQTMPRP | -0.349
53 | RRIRSRPPRLPRPRPRPYCSPRP | -0.094
54 | RRIRRRPPRLPRPRPRPSGYPRP | -0.201
55 | RRIRLRPPRLPRPRPRPAFWPRP | 0.292
56 | RRIRWRPPRLPRPRPRPACGPRP | 0.508
57 | RRIRKRPPRLPRPRPRPCWLPRP | 0.246
58 | RRIRSRPPRLPRPRPRPHAKPRP | -0.288
59 | RRIRSRPPRLPRPRPRPETAPRP | 0.667
60 | RRIRCRPPRLPRPRPRPANMPRP | -0.277
61 | RRIRPRPPRLPRPRPRPQPHPRP | 0.138
62 | RRIRPRPPRLPRPRPRPQKGPRP | -0.0684
63 | RRIRDRPPRLPRPRPRPNWHPRP | 0.144
64 | RRIRMRPPRLPRPRPRPRHVPRP | 0.437
65 | RRIRNRPPRLPRPRPRPWTNPRP | -0.492
66 | RRIRTRPPRLPRPRPRPGEVPRP | 0.211
67 | RRIRMRPPRLPRPRPRPFFHPRP | -0.243
68 | RRIRCRPPRLPRPRPRPPHYPRP | 0.638
69 | RRIRWRPPRLPRPRPRPPAEPRP | 2.93
70 | RRIRHRPPRLPRPRPRPTDYPRP | 0.029
71 | RRIRNRPPRLPRPRPRPWDIPRP | -0.00804
72 | RRIRTRPPRLPRPRPRPIEKPRP | -0.478
73 | RRIRARPPRLPRPRPRPKEEPRP | -0.0728
74 | RRIRPRPPRLPRPRPRPVQLPRP | -0.135
75 | RRIRHRPPRLPRPRPRPPAQPRP | 0.633

Row | Sequence | shrunken log2 fold change
76 | RRIRIRPPRLPRPRPRPHVYPRP | -0.112
77 | RRIRWRPPRLPRPRPRPTWQPRP | 0.125
78 | RRIRLRPPRLPRPRPRPPVGPRP | 1.42
79 | RRIRGRPPRLPRPRPRPRLPPRP | 0.851
80 | RRIRKRPPRLPRPRPRPAQWPRP | 0.421
81 | RRIRHRPPRLPRPRPRPRRDPRP | -0.02
82 | RRIRHRPPRLPRPRPRPIWWPRP | 0.0995
83 | RRIRIRPPRLPRPRPRPMCKPRP | -0.262
84 | RRIRKRPPRLPRPRPRPMQMPRP | -0.00145
85 | RRIRRRPPRLPRPRPRPRQPPRP | 0.997
86 | RRIRHRPPRLPRPRPRPTCSPRP | 0.0782
87 | RRIRDRPPRLPRPRPRPDCDPRP | 0.122
88 | RRIRSRPPRLPRPRPRPEHSPRP | -0.182
89 | RRIRMRPPRLPRPRPRPNWPPRP | 0.096
90 | RRIRKRPPRLPRPRPRPQMQPRP | 0.134
91 | RRIRHRPPRLPRPRPRPRHVPRP | -0.324
92 | RRIRQRPPRLPRPRPRPRLQPRP | 0.501
93 | RRIRHRPPRLPRPRPRPPAAPRP | 0.0555
94 | RRIRSRPPRLPRPRPRPHFGPRP | -0.195
95 | RRIRLRPPRLPRPRPRPCLYPRP | -0.247
96 | RRIRCRPPRLPRPRPRPSNTPRP | -0.417
97 | RRIRHRPPRLPRPRPRPDKWPRP | -0.395
98 | RRIRKRPPRLPRPRPRPIMVPRP | 0.248
99 | RRIRIRPPRLPRPRPRPPVDPRP | -0.111
100 | RRIRARPPRLPRPRPRPDIIPRP | 0.363

Row | Sequence | shrunken log2 fold change
101 | RRIRPRPPRLPRPRPRPMAPPRP | -0.0483
102 | RRIRWRPPRLPRPRPRPVCRPRP | 0.353
103 | RRIRCRPPRLPRPRPRPFHPPRP | -0.075
104 | RRIRIRPPRLPRPRPRPDHPPRP | -0.266
105 | RRIRARPPRLPRPRPRPGFDPRP | 0.719
106 | RRIRTRPPRLPRPRPRPSQNPRP | -0.00631
107 | RRIRERPPRLPRPRPRPHNPPRP | -0.417
108 | RRIRHRPPRLPRPRPRPKEIPRP | -0.00142
109 | RRIRLRPPRLPRPRPRPSQFPRP | -0.12
110 | RRIRCRPPRLPRPRPRPLCCPRP | -0.237
111 | RRIRTRPPRLPRPRPRPELHPRP | 0.396
112 | RRIRARPPRLPRPRPRPHSQPRP | 0.0561
113 | RRIRFRPPRLPRPRPRPPNDPRP | 0.273
114 | RRIRKRPPRLPRPRPRPGCYPRP | 0.144
115 | RRIRPRPPRLPRPRPRPELHPRP | 0.0832
116 | RRIRNRPPRLPRPRPRPCRNPRP | -0.437
117 | RRIRDRPPRLPRPRPRPVVDPRP | 0.104
118 | RRIRERPPRLPRPRPRPPNIPRP | -0.207
119 | RRIRNRPPRLPRPRPRPDNKPRP | -1.35
120 | RRIRFRPPRLPRPRPRPNQEPRP | 0.229
121 | RRIRDRPPRLPRPRPRPAMFPRP | -0.228
122 | RRIRKRPPRLPRPRPRPDGIPRP | 0.00242
123 | RRIRTRPPRLPRPRPRPIWDPRP | -0.414
124 | RRIRHRPPRLPRPRPRPYDPPRP | -0.00884
125 | RRIRHRPPRLPRPRPRPQNNPRP | -0.731

Row | Sequence | shrunken log2 fold change
126 | RRIRMRPPRLPRPRPRPPIQPRP | 0.693
127 | RRIRGRPPRLPRPRPRPFADPRP | 2.03
128 | RRIRFRPPRLPRPRPRPTMTPRP | -0.0114
129 | RRIRQRPPRLPRPRPRPEVKPRP | -0.0062
130 | RRIRERPPRLPRPRPRPKIHPRP | -0.233
131 | RRIRWRPPRLPRPRPRPKGFPRP | 0.437
132 | RRIRQRPPRLPRPRPRPTICPRP | -0.114
133 | RRIRYRPPRLPRPRPRPHSWPRP | -0.69
134 | RRIRNRPPRLPRPRPRPSEQPRP | -0.288
135 | RRIRTRPPRLPRPRPRPINRPRP | 0.028
136 | RRIRCRPPRLPRPRPRPALMPRP | -0.011
137 | RRIRNRPPRLPRPRPRPCTVPRP | -0.8
138 | RRIRIRPPRLPRPRPRPERAPRP | 0.761
139 | RRIRGRPPRLPRPRPRPGFNPRP | 0.235
140 | RRIRKRPPRLPRPRPRPSHFPRP | 0.355
141 | RRIRARPPRLPRPRPRPWQYPRP | -0.123
142 | RRIRQRPPRLPRPRPRPTAAPRP | 0.933
143 | RRIRTRPPRLPRPRPRPDISPRP | -0.038
144 | RRIRVRPPRLPRPRPRPAGDPRP | 0.778
145 | RRIRCRPPRLPRPRPRPQDRPRP | -0.175
146 | RRIRDRPPRLPRPRPRPSKNPRP | -0.106
147 | RRIRWRPPRLPRPRPRPSYTPRP | -0.656
148 | RRIRRRPPRLPRPRPRPMTRPRP | 0.315
149 | RRIRIRPPRLPRPRPRPLDCPRP | -0.267
150 | RRIRARPPRLPRPRPRPGYFPRP | 0.212

Source: the supplement of paper PMC9112550, “Optimization of the antimicrobial peptide Bac7 by deep mutational scanning” (BMC Biology, 2022)
